Some targets named below: HLA-A*03:01; HLA-A*11:01; HLA-A*31:01; HLA-A*33:01; HLA-A*68:01.
What all share (experiment): IEDB peptide-MHC binding, purified MHC/competitive/radioactivity; filed as Kd, often an IC50 or EC50 that approximates it; ≥ and ≤ were set here for values at or beyond the usual limits of such assays
[1] abbreviates: source organism: Vaccinia virus WR.
[2] abbreviates: source organism: SARS coronavirus Tor2.
Where [3] appears, read: source organism: Mammarenavirus juninense.
[4] abbreviates: source organism: Vaccinia virus Copenhagen.
The mark [5] stands for this setting: source organism: Mammarenavirus guanaritoense.

Bounds are passed on as bounds.

VALYRRIQR: the Kd with HLA-A*03:01 (setting [1]) was 16100 nM; with HLA-A*11:01 (setting [1]), 5240 nM; in the test with HLA-A*31:01 (setting [1]), 2.27 nM; with HLA-A*33:01 (setting [1]) it was 12.8 nM; with HLA-A*68:01 (setting [1]), 256 nM.
For CAVHLIIYY the same measures were 10100 nM, 788 nM, 4950 nM, ≥ 21100 nM and 24.5 nM.
For IMASLVLAR, the Kd with HLA-A*03:01 (setting [2]) came out at 10.6 nM; with HLA-A*11:01 (setting [2]), 104 nM; with HLA-A*31:01 (setting [2]), 18 nM; with HLA-A*33:01 (setting [2]) it was 560 nM; in the test with HLA-A*68:01 (setting [2]), 28.4 nM.
The matching figures for VTCAAYYFMK: 12.7 nM, 6.93 nM, 199 nM, 2620 nM and 49.2 nM.
On to SSLRREHIK, for which the Kd is 1070 nM with HLA-A*03:01 (setting [1]); 270 nM in the test with HLA-A*11:01 (setting [1]); 89.7 nM with HLA-A*31:01 (setting [1]); ≥ 37100 nM with HLA-A*33:01 (setting [1]); 14000 nM with HLA-A*68:01 (setting [1]).
For RLGLVLDDYK the same measures were 48.9 nM, 37.8 nM, 2220 nM, ≥ 70000 nM and 506 nM.
For SFIVPEFAK the same measures were ≥ 43500 nM, 103 nM, 27.3 nM, 8350 nM and 1120 nM.
RNPYENLLYK: the Kd in the test with HLA-A*03:01 (setting [3]) was 2470 nM; with HLA-A*11:01 (setting [3]) it was 628 nM; with HLA-A*31:01 (setting [3]) it was 4760 nM; with HLA-A*33:01 (setting [3]), ≥ 35900 nM; with HLA-A*68:01 (setting [3]), 12600 nM.
Take QTVKPGNFNK: the Kd was 2730 nM with HLA-A*03:01 (setting [2]); 249 nM with HLA-A*11:01 (setting [2]); 1510 nM with HLA-A*31:01 (setting [2]); 10500 nM in the test with HLA-A*33:01 (setting [2]); 418 nM in the test with HLA-A*68:01 (setting [2]).
Regarding AFHTPAFDK, the Kd in the test with HLA-A*03:01 (setting [2]) was 1430 nM; in the test with HLA-A*11:01 (setting [2]), 957 nM; with HLA-A*31:01 (setting [2]), 5640 nM; with HLA-A*33:01 (setting [2]) it was ≥ 33200 nM; with HLA-A*68:01 (setting [2]) it was 8590 nM.
With SFIEDLLFNK, the Kd in the test with HLA-A*03:01 (setting [2]) turned out to be 7950 nM; with HLA-A*11:01 (setting [2]) it was 352 nM; with HLA-A*31:01 (setting [2]), 53.5 nM; with HLA-A*33:01 (setting [2]) it was 387 nM; with HLA-A*68:01 (setting [2]) it was 725 nM.
For LAMDEFIQR the same measures were ≥ 78000 nM, 2390 nM, 362 nM, 1450 nM and 612 nM.
Consider PLIDIIRKR, for which the dissociation constant Kd in the test with HLA-A*03:01 (setting [1]) is ≥ 45700 nM; in the test with HLA-A*11:01 (setting [1]), ≥ 48100 nM; with HLA-A*31:01 (setting [1]), 6250 nM; with HLA-A*33:01 (setting [1]) it was 1020 nM; with HLA-A*68:01 (setting [1]), 974 nM.
The matching figures for NAISSRVDR: ≥ 78000 nM, ≥ 37100 nM, 1280 nM, 96 nM and 14.9 nM.
Consider SSLVKNVNK, for which the Kd in the test with HLA-A*03:01 (setting [1]) is 432 nM; with HLA-A*11:01 (setting [1]), 27.1 nM; in the test with HLA-A*31:01 (setting [1]), 1250 nM; in the test with HLA-A*33:01 (setting [1]) it was ≥ 77700 nM; with HLA-A*68:01 (setting [1]) it was 4400 nM.
Turning to GVVREFLTR, the Kd with HLA-A*03:01 (setting [2]) worked out at 19000 nM; in the test with HLA-A*11:01 (setting [2]), 522 nM; with HLA-A*31:01 (setting [2]), 899 nM; with HLA-A*33:01 (setting [2]), 13200 nM; with HLA-A*68:01 (setting [2]), 186 nM.
With HINTLIQYR, the Kd came out at 191 nM with HLA-A*03:01 (setting [1]); 197 nM with HLA-A*11:01 (setting [1]); 6.05 nM in the test with HLA-A*31:01 (setting [1]); 16.5 nM in the test with HLA-A*33:01 (setting [1]); 14.8 nM with HLA-A*68:01 (setting [1]).
Turning to NFLKEQHCQK, the Kd with HLA-A*03:01 (setting [2]) was 7280 nM; in the test with HLA-A*11:01 (setting [2]), 13300 nM; in the test with HLA-A*31:01 (setting [2]) it was 1470 nM; in the test with HLA-A*33:01 (setting [2]), 1220 nM; with HLA-A*68:01 (setting [2]), ≥ 36400 nM.
As to ISDYSAEVER, the Kd with HLA-A*03:01 (setting [1]) is ≥ 23400 nM; in the test with HLA-A*11:01 (setting [1]) it was 3840 nM; with HLA-A*31:01 (setting [1]), 1730 nM; with HLA-A*33:01 (setting [1]), 1360 nM; in the test with HLA-A*68:01 (setting [1]) it was 229 nM.
For the sequence RVIWMDAYK, the Kd amounted to 4.03 nM with HLA-A*03:01 (setting [4]); 0.793 nM in the test with HLA-A*11:01 (setting [4]); 1.05 nM with HLA-A*31:01 (setting [4]); 4820 nM in the test with HLA-A*33:01 (setting [4]); 0.827 nM with HLA-A*68:01 (setting [4]).
QFIKPVSDLY: the Kd was ≥ 70100 nM with HLA-A*03:01 (setting [1]); ≥ 38300 nM in the test with HLA-A*11:01 (setting [1]); ≥ 46500 nM with HLA-A*31:01 (setting [1]); ≥ 42600 nM in the test with HLA-A*33:01 (setting [1]); 1270 nM in the test with HLA-A*68:01 (setting [1]).
For TLITLILSNK the same measures were 1.61 nM, 3.41 nM, 570 nM, 8500 nM and 3.73 nM.
The matching figures for FLKDDTLSK: 347 nM, ≥ 10000 nM, ≥ 77900 nM, ≥ 30700 nM and 638 nM.
For KAIEKDRLDK the same measures were 12600 nM, 1200 nM, ≥ 21800 nM, ≥ 70000 nM and 4730 nM.
For the sequence EQLSKYVEK, the Kd with HLA-A*03:01 (setting [1]) turned out to be 149 nM; in the test with HLA-A*11:01 (setting [1]) it was 9.75 nM; with HLA-A*31:01 (setting [1]), 506 nM; in the test with HLA-A*33:01 (setting [1]), 832 nM; with HLA-A*68:01 (setting [1]), 161 nM.
As for FVFPLNSKVK, the Kd with HLA-A*03:01 (setting [2]) turned out to be 164 nM; in the test with HLA-A*11:01 (setting [2]), 113 nM; with HLA-A*31:01 (setting [2]), 12800 nM; with HLA-A*33:01 (setting [2]) it was 16700 nM; with HLA-A*68:01 (setting [2]) it was 8.76 nM.
For the sequence ESIEDKFDY, the Kd was 7530 nM in the test with HLA-A*03:01 (setting [1]); 11300 nM with HLA-A*11:01 (setting [1]); ≥ 34500 nM in the test with HLA-A*31:01 (setting [1]); ≥ 77700 nM with HLA-A*33:01 (setting [1]); 1720 nM in the test with HLA-A*68:01 (setting [1]).
The matching figures for KSRRLNLFSK: 640 nM, 1090 nM, 647 nM, ≥ 70000 nM and ≥ 70200 nM.
FLLNKEMYLK: the Kd with HLA-A*03:01 (setting [2]) was determined as 59.5 nM; with HLA-A*11:01 (setting [2]) it was 153 nM; with HLA-A*31:01 (setting [2]), 2080 nM; with HLA-A*33:01 (setting [2]) it was 2510 nM; with HLA-A*68:01 (setting [2]), 986 nM.
NLTDTNFKK: the Kd with HLA-A*03:01 (setting [1]) is 1220 nM; with HLA-A*11:01 (setting [1]) it was 658 nM; in the test with HLA-A*31:01 (setting [1]), 9070 nM; with HLA-A*33:01 (setting [1]), 4430 nM; in the test with HLA-A*68:01 (setting [1]) it was 27 nM.
For VALSSLVSK the same measures were 283 nM, 15.1 nM, 2040 nM, ≥ 39800 nM and 1070 nM.
On to ETSPGEIKPK, for which the Kd in the test with HLA-A*03:01 (setting [1]) is ≥ 35000 nM; with HLA-A*11:01 (setting [1]) it was 1520 nM; with HLA-A*31:01 (setting [1]), ≥ 70000 nM; with HLA-A*33:01 (setting [1]) it was ≥ 61900 nM; in the test with HLA-A*68:01 (setting [1]), 47.5 nM.
Take CCNWLDRCR: the Kd with HLA-A*03:01 (setting [5]) was ≥ 78000 nM; in the test with HLA-A*11:01 (setting [5]), 18100 nM; with HLA-A*31:01 (setting [5]) it was 13500 nM; with HLA-A*33:01 (setting [5]) it was ≥ 56800 nM; with HLA-A*68:01 (setting [5]), ≥ 77600 nM.
For SVKYYGRSTK, the Kd with HLA-A*03:01 (setting [1]) stood at 97.6 nM; in the test with HLA-A*11:01 (setting [1]), 571 nM; with HLA-A*31:01 (setting [1]) it was 1340 nM; in the test with HLA-A*33:01 (setting [1]), 13500 nM; with HLA-A*68:01 (setting [1]), 822 nM.
For the sequence VTRKCPQKK, the Kd in the test with HLA-A*03:01 (setting [1]) is 0.762 nM; with HLA-A*11:01 (setting [1]) it was 61.5 nM; with HLA-A*31:01 (setting [1]), 13.7 nM; in the test with HLA-A*33:01 (setting [1]), 12300 nM; in the test with HLA-A*68:01 (setting [1]), 9880 nM.
Regarding FLKEQHCQK, the Kd in the test with HLA-A*03:01 (setting [2]) came to 193 nM; with HLA-A*11:01 (setting [2]), 15400 nM; in the test with HLA-A*31:01 (setting [2]) it was 802 nM; with HLA-A*33:01 (setting [2]) it was 643 nM; with HLA-A*68:01 (setting [2]), 1320 nM.
In the case of RALKAYFTAK, the Kd with HLA-A*03:01 (setting [1]) is 12.4 nM; in the test with HLA-A*11:01 (setting [1]), 26.5 nM; with HLA-A*31:01 (setting [1]) it was 38.8 nM; with HLA-A*33:01 (setting [1]), 16000 nM; in the test with HLA-A*68:01 (setting [1]) it was 1950 nM.

What is called Kd is the free concentration of one partner at which half of the binding sites on the other are occupied at equilibrium, for simple one-to-one binding.

For the origin of these results see the Immune Epitope Database (IEDB).
